From patent US20200247855A1 (published 2020)
Changes are numbered by the printed parent chain.

Legend:
P974_AMBCA = target: T1, P974_AMBCA (Amblyomma cajennense, UniProt A0A023FDY8 22-118); assay: BLI
T1 construct: His-tagged in BLI
T1 sequence: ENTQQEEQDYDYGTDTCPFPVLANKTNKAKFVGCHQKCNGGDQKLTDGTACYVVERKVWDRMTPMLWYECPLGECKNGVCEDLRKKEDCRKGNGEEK

P991_AMBCA = target: T2, P991_AMBCA (Amblyomma cajennense, UniProt A0A023FFD0 29-136); assay: BLI
T2 construct: His-tagged in BLI
T2 sequence: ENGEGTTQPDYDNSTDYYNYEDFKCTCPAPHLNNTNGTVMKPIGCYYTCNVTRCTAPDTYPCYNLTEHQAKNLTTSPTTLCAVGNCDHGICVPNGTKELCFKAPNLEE

P546_AMBCA = target: T3, P546_AMBCA (Amblyomma cajennense, UniProt A0A023FBW7 22-118); assay: BLI
T3 construct: His-tagged in BLI
T3 sequence: T1 sequence with Q8E, E69S, D88E

P672_RHIPU = target: T4, P672_RHIPU (Rhipicephalus pulchellus, UniProt L7MC74 22-125); assay: BLI
T4 sequence: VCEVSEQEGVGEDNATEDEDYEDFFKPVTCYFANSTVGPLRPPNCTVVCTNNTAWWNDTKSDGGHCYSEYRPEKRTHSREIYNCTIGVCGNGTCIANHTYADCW

P985_AMBPA = target: T5, P985_AMBPA (Amblyomma parvum, UniProt A0A023FT45 25-132); assay: BLI
T5 construct: His-tagged in BLI
T5 sequence: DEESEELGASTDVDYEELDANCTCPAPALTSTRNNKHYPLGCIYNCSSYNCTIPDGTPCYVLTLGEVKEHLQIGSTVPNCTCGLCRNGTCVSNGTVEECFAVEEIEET

CXCL8_HUMAN = target: T6, CXCL8_HUMAN (human, UniProt P10145 28-99); assay: YSD
T6 sequence: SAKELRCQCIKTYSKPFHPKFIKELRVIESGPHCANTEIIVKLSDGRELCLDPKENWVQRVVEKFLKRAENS

CXCL10_HUMAN [1] = target: T7, CXCL10_HUMAN (human, UniProt P02778 22-98); assay: YSD
T7 sequence: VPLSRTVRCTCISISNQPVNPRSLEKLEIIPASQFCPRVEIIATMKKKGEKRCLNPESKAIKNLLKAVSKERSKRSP

CCL25_HUMAN = target: T8, CCL25_HUMAN (human, UniProt O15444 24-150); assay: YSD
T8 sequence: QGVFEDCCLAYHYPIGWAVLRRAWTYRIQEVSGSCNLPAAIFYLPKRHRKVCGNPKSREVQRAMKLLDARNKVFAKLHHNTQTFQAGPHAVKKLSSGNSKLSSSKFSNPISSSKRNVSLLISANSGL

CXCL9_HUMAN = target: T9, CXCL9_HUMAN (human, UniProt Q07325 23-125); assay: YSD FACS
T9 sequence: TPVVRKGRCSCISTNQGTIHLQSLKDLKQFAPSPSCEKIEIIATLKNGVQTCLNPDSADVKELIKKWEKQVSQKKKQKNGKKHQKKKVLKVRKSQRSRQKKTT

CXCL12_HUMAN = CXCL12_HUMAN (human, UniProt P48061 22-89); assay: YSD FACS
Chain of CXCL12_HUMAN (P48061 22-89 limits assumed): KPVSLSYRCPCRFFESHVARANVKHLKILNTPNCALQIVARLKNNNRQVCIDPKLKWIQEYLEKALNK

CXCL10_HUMAN [2] = target: T7, CXCL10_HUMAN; assay: YSD FACS

B1: CCL22_HUMAN (ligand)
chain: GPYGANMEDSVCCRDYVRYRLPLRVVKHFYWTSDSCPRPGVVLLTFRDKEICADPRVPWVKMILNKLSQ
B1 was tested. Which Kd (P974_AMBCA) did it give?
The Kd was 0.0165 µM.

What about the Kd (P991_AMBCA) of the same binder?
Its Kd is 0.00397 µM.

What about the Kd (P546_AMBCA) of the same binder?
The Kd was 0.027 µM.

B2: CCL23_HUMAN (ligand)
chain: RVTKDAETEFMMSKLPLENPVLLDRFHATSADCCISYTPRSIPCSLLESYFETNSECSKPGVIFLTKKGRRFCANPSDKQVQVCMRMLKLDTRIKTRKN
For B2, which Kd (P991_AMBCA) is on record?
The Kd was 0.00558 µM.

And the Kd (P672_RHIPU)?
Its Kd is 0.01 µM.

B3: CCL24_HUMAN (ligand)
chain: VVIPSPCCMFFVSKRIPENRVVSYQLSSRSTCLKAGVIFTTKKGQQFCGDPKQEWVQRYMKNLDAKQKKASPRARAVA
With B3 as the binder, how does the Kd (P991_AMBCA) read?
Its Kd is 0.00654 µM.

What about the Kd (P985_AMBPA) of the same binder?
The Kd was 0.041 µM.

B4: CCL27_HUMAN (ligand)
chain: FLLPPSTACCTQLYRKPLSDKLLRKVIQVELQEADGDCHLQAFVLHLAQRSICIHPQNPSLSQWFEHQERKLHGTLPKLNFGMLRKMG
For B4, which Kd (P991_AMBCA) is on record?
The Kd was 0.0389 µM.

B5: P993_AMBPA (other)
chain: HRHYDPNEPCLIAGLKTPRDALPAGCRYDCMIKKNQKLRDGLLCLDVPEKVVKRMVNYLNYSCPLGTCRKGICKRKHRNVRCQKYPVFYMSPPK
notes: yeast surface display
Does B5 bind (CXCL8_HUMAN)?
Result: binds

B6: P1030_AMBPA (other)
chain: GPPSIPGNESIPGCGDAGTTTAPEDNPKHYGTLTDKKGCTLPIIGTWMTAVDHQHLQGTRGERRGPTGKVNLPASCRKNCHGRQEILRDGIPCRKVVGNPKGSKKHLKSGCLRGKCLAGQCVNDGRRISCYVPRNITDTEPTPGLLAE
notes: yeast surface display
Does B6 bind (CXCL8_HUMAN)?
Result: binds

B7: P1219_IXORI (other)
chain: ASLAKETEDTTLPARALVDSPDSDNCSSPQLPYFDELTYMPLGFLAVNCTKTCPVGKNGTVVNGNKCIVTWSILDVSTITVLVGSCKNGYCISDGSSECRNITLAGEDSQEEEEEAEEDEEEDDGDEEEDEEEDEEENDDD
notes: yeast surface display
Does B7 bind (CXCL10_HUMAN [1])?
Result: binds

B8: P1224_IXORI (other)
chain: SDLCKMEAESSPFKLPQSSLLDAPDEEGCKYQLLFVEAEGPLVVNCTKDCPNGKIRTVVEGELCIAMVKTSSSGEATGLVGSCKRGSCVKKDDPCRTFTLSEEGDDDEEDEEEEEDEEEDEEEDEEEEEEDEEEED
notes: yeast surface display
Does B8 bind (CXCL10_HUMAN [1])?
Result: binds

B9: P1283_IXORI (other)
chain: KEPEDTTLPPGALVDSPDSDNCSSPHLPYFDETTNMWMGFLAVNCTKKCPVGKHVTVVDGNKCIGTWSFLDELTITVLVGSCKDGFCETDGSSECRNITLAEEDSQEEEGAAAEEEDEEDEEDEEEEEAEEEREDDHDDA
notes: yeast surface display
Does B9 bind (CXCL10_HUMAN [1])?
Result: binds

B10: P1220_IXORI (other)
chain: GSTPSAMKTEDILKVLGSTSSLENHTDSSHCRYQELLDITKNIENAGFLAINCQRSCPNGKQTMVEGYGCIFKIKHATKRGKVKVKEGSCRKGACVRGSTRPPWRLLVLLGESKEEEFL
notes: yeast surface display
Does B10 bind (CCL25_HUMAN)?
Result: binds

B11: P458_IXORI (other)
chain: GSKQPGAAGSSSDSVEAVFCPTNCTKGTNGAWSGCSDDCICVHVGENTEGSCMKFSGDYDYPTPEA
notes: yeast surface display
With B11 as the binder, how does the “% cells over threshold fluorescence” value (CXCL9_HUMAN) read?
Its value is 37%.

B12: P1074_IXORI (other)
chain: GSKESSAHQSSDDSIKAEFCDAKCTMKTDGKWTQCHGGCFCVHVGNETEGRCMRLDGDYDYPSTQPEE
notes: yeast surface display
For B12, which “% cells over threshold fluorescence” value (CXCL9_HUMAN) is on record?
The value was 35%.

B13: P1080_IXORI (other)
chain: SAGSKGSSAPQSSGDSVVAEFCDTNCTMKKDGKWTECNGDCFCVHVGNETVGRCMRLDGDYDYTSSKTTRRNKKTRNGLCRLDRNRTTVDYPERNTREP
notes: yeast surface display
B13 was tested. Which “% cells over threshold fluorescence” value (CXCL9_HUMAN) did it give?
Its value is 49%.

And the “% cells over threshold fluorescence” value (CXCL12_HUMAN)?
Its value is 53%.

B14: P1086_IXORI (other)
chain: GSKGQRASQVSETSITAEFCDTSCTQGTDKTWSGCSGDCFCVHVGNDTEGRCMRWDGDYPSAEEEE
notes: yeast surface display
B14 was tested. Which “% cells over threshold fluorescence” value (CXCL9_HUMAN) did it give?
Its value is 54%.

B15: P1095_IXORI (other)
chain: HSPVAGSEVQKLTSDPNDDIDVSYCGMNCTVVNGKSDECSENCKCLHEGDDPKGICVAITYFGDWGDPNDDPKINEATPQTQIFEKKRK
notes: yeast surface display
With B15 as the binder, how does the “% cells over threshold fluorescence” value (CXCL12_HUMAN) read?
Its value is 47%.

B16: P1096_IXORI (other)
chain: HTTVTGSVEGKPNNPNEDIEVSYCRMNCTVENGVSSACSGDCVCVHRDNEPNGICVEITYFGDFGDPSQDPSIDEAAPRESVSKRRSNGES
notes: yeast surface display
For B16, which “% cells over threshold fluorescence” value (CXCL10_HUMAN [2]) is on record?
Its value is 50%.

B17: P1100_IXORI (other)
chain: GSKGSSASQSSDNSVVAKFCDTNCTINEGGKWTECKGGCFCVHVGNETVGRCMKLDGDYDYPSPKPEE
notes: yeast surface display
For B17, which “% cells over threshold fluorescence” value (CXCL9_HUMAN) is on record?
Its value is 55%.

B18: P1124_IXORI (other)
chain: DSKGTSDSQDSTKSIKVDFCETNCTKTDGGWTGCTGDCICVSVGDSIEGRCMDFG
notes: yeast surface display
Which “% cells over threshold fluorescence” value (CXCL9_HUMAN) does the source give for B18 here?
Its value is 31%.

B19: P1126_AMBCA (other)
chain: KPQILQRTDKSTDSEWDPQTCPETCIPSKNITCSDGCVCVKLGEEEEGTCFNMTGVDWLGSPSDD
notes: yeast surface display
Which “% cells over threshold fluorescence” value (CXCL9_HUMAN) does the source give for B19 here?
The value was 56%.

B20: P1134_IXORI (other)
chain: NEEVFTVEYCGMNCTQKSDGTWTECSGKNKDCRCYHESDAREGLCLSTEYTDFSQFETPSNSDLEAATPRPRKTLYPVRNPHGPKTRGLGYDKRILRDRVKFLI
notes: yeast surface display
B20 was tested. Which “% cells over threshold fluorescence” value (CXCL10_HUMAN [2]) did it give?
The value was 66%.
